Earlier results, collected in patent publication US20220370374A1, “TRANSDERMAL ABSORPTION-TYPE PATCH” (KYUSHU UNIVERSITY, NATIONAL UNIVERSITY CORPORATION, priority 2019, published 2022).
Where two headings read alike, the source gives them in different places.

Compound | solubility (in ethanol, acetic acid, or N-methylpyrrolidone) | solubility (in water) | solubility (in ethanol) | solubility (in methanol) | solubility (in water or acetic acid)
C[C@@H](O)[C@@H]1NC(=O)[C@H](CCCCN)NC(=O)[C@@H](Cc2c[nH]c3ccccc23)NC(=O)[C@H](Cc2ccccc2)NC(=O)[C@@H](NC(=O)[C@H](N)Cc2ccccc2)CSSC[C@@H](C(=O)N[C@H](CO)[C@@H](C)O)NC1=O [Octreotide acetate] | freely soluble | Extremely soluble | – | – | –
Leuprorelin | – | – | slightly insoluble | soluble | freely soluble
